Results reported in patent publication US20240116985A1, “STAPLED PEPTIDES AND METHODS THEREOF” (priority 2020, published 2024).
Starred links: 1 amine or outer side, 2 acyl side, 3 side chain; linkers in the order of their positions; H or OH if unused. Positions of bridges follow the written chain, without caps; N, C: chain ends. Non-standard residues stand in square brackets, D forms with d. Primed or numbered codes have the meaning given here. PyrS2″ = (S)-3-amino-1-((pent-4-en-1-yloxy)carbonyl)pyrrolidine-3-carboxylic acid (stapling residue), C=CCCCOC(=O)N1CC[C@@](N[*:1])(C(=O)[*:2])C1; B5(24) = 2-amino-2-(pent-4-en-1-yl)hept-6-enoic acid, 2,2-bis(4-pentenyl)glycine (stitching residue), C=CCCCC(CCCC=C)(N[*:1])C(=O)[*:2]; B5(4) = 2,2-bis(4-pentenyl)glycine = 2-amino-2-(pent-4-en-1-yl)hept-6-enoic acid (stitching residue), C=CCCCC(CCCC=C)(N[*:1])C(=O)[*:2]; B5(8) = 2,2-bis(4-pentenyl)glycine (2-amino-2-(pent-4-en-1-yl)hept-6-enoic acid, stitching residue), C=CCCCC(CCCC=C)(N[*:1])C(=O)[*:2]; TfeGA = (S)-2-amino-3-((carboxymethyl)(2,2,2-trifluoroethyl)amino)propanoic acid, O=C([C@H](CN(CC(=O)[*:3])CC(F)(F)F)N[*:1])[*:2]; Phe(2-Cl) = N[C@@H](Cc1ccccc1Cl)C(=O)O; Bta = N[C@@H](Cc1csc2ccccc12)C(=O)O; αAllylPro = C=CC[C@@]1(C(=O)O)CCCN1; tBuAla = CC(C)(C)C[C@H](N)C(=O)O; 3Thi = N[C@@H](Cc1ccsc1)C(=O)O; Cha = N[C@@H](CC1CCCCC1)C(=O)O; S8 = C=CCCCCCC[C@](C)(N)C(=O)O; hSer = N[C@@H](CCO)C(=O)O

What was measured:
[1] = target: full-length beta-Catenin (Uniprot ID P35222) (Homo sapiens (Human)) (UniProt P35222); assay: fluorescence polarization competition vs 5FAM-TCF4(10-53) on full-length beta-catenin
[2] = target: full-length beta-Catenin (Uniprot ID P35222) (Homo sapiens (Human)) (UniProt P35222); assay: fluorescence polarization competition, 5FAM-TCF4 10-53 probe on full-length beta-catenin
Bcat-Halo [3] = target: Bcat-Halo (UniProt P35222); assay: NanoBRET Abs IC50 in HEK293 cells; competitor TCF4-Luc on Bcat-Halo
[4] = target: full-length beta-Catenin (Uniprot ID P35222) (Homo sapiens (Human)) (UniProt P35222); assay: fluorescence polarization competition; full-length beta-catenin; competitor displaced: 5FAM-TCF4 10-53
[5] = target: full-length beta-Catenin (Uniprot ID P35222) (Homo sapiens (Human)) (UniProt P35222); assay: fluorescence polarization competition; full-length beta-catenin + 5FAM-TCF4(10-53) probe; peptide titrated
Bcat-Halo [6] = target: Bcat-Halo (UniProt P35222); assay: NanoBRET in HEK293 cells (Bcat-Halo / TCF4-Luc), absolute IC50; competitor: TCF4-Luc

Sequence of Bcat-Halo (P35222 whole entry): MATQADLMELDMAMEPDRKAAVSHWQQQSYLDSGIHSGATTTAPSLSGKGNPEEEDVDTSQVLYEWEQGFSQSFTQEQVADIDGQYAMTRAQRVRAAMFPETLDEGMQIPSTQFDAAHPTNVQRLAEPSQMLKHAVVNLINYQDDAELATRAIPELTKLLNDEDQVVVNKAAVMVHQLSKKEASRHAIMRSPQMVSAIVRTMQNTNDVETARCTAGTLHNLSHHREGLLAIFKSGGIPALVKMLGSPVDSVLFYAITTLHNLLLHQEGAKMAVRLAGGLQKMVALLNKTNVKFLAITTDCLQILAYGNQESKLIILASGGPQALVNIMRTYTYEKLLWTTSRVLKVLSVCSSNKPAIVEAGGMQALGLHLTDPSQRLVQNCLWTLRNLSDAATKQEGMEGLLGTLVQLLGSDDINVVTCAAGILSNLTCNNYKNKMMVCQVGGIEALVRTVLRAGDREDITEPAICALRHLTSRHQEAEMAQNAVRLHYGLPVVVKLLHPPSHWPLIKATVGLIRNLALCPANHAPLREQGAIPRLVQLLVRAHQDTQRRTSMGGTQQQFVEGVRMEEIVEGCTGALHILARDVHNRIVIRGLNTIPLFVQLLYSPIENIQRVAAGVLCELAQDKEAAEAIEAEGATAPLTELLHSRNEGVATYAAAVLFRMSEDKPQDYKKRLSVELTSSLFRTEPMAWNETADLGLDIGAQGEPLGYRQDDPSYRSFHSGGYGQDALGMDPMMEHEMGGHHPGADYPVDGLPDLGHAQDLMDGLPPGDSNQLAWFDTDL
Sequence of full-length beta-Catenin (Uniprot ID P35222) (Homo sapiens (Human)) (P35222 2-781 limits assumed): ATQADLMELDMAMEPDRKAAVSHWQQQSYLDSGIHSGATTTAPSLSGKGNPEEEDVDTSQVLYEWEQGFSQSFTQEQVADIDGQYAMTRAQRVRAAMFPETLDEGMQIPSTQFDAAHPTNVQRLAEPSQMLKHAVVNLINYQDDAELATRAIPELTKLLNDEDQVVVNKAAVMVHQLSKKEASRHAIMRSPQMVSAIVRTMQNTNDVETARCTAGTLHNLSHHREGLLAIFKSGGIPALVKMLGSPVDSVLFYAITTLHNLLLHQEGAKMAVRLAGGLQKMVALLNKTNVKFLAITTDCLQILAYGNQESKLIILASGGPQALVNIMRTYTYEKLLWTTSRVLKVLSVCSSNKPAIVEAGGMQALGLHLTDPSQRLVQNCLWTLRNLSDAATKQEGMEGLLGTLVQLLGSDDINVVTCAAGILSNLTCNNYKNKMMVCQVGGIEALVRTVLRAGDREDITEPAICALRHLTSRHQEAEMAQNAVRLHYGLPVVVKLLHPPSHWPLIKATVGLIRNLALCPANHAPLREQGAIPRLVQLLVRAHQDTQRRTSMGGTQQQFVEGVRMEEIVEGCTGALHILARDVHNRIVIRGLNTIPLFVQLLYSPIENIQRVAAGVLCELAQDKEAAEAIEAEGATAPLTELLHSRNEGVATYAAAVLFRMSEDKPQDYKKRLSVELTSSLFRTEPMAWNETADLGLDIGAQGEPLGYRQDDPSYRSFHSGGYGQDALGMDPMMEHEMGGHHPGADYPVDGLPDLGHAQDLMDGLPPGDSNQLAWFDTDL

Row | Binder | IC50 [1] [µM] | EC50 [2] [µM] | IC50 (Bcat-Halo [3]) [µM] | IC50 [4] [µM] | EC50 [5] [µM] | IC50 (Bcat-Halo [6]) [µM]
1 | Ac-[αAllylPro]D[Cha][B5(4)]DDAAFL[PyrS2″][Phe(2-Cl)][Bta]T-NH2 (staple 1-4, 4-11) [I-1139] | 0.022 | 0.022 | 18 | – | – | –
2 | Ac-[αAllylPro]D[tBuAla][B5(4)]DEAAFN[PyrS2″]F[Bta]H-NH2 (staple 1-4, 4-11; not fully specified) [I-692] | – | – | – | 0.009 | 0.009 | 25.6
3 | Ac-[αAllylPro]D[Cha][B5(4)]DDAAFS[PyrS2″][Phe(2-Cl)][Bta]L-NH2 (staple 1-4, 4-11) [I-1138] | 0.018 | 0.018 | 19.8 | – | – | –
4 | Ac-[αAllylPro]D[tBuAla][B5(4)]DEAAFN[PyrS2″]F[Bta]Q-NH2 (staple 1-4, 4-11; not fully specified) [I-685] | – | – | – | 0.025 | 0.025 | 19.4
5 | Ac-[αAllylPro]D[Cha][B5(4)]DDAAFL[PyrS2″][Phe(2-Cl)][Bta][dT]-NH2 (staple 1-4, 4-11) [I-1140] | 0.033 | 0.033 | 32.5 | – | – | –
6 | Ac-[αAllylPro]DI[B5(8)]D[TfeGA]AAFN[S8][3Thi][Bta]Q-NH2 (staple 1-4, 4-11) [I-701] | – | – | – | 0.034 | 0.034 | 18.1
7 | Ac-[αAllylPro]D[tBuAla][B5(4)]DEAAFN[PyrS2″][3Thi][Bta]Q-NH2 (staple 1-4, 4-11; not fully specified) [I-691] | – | – | – | 0.009 | 0.009 | 17
8 | Ac-[αAllylPro]D[tBuAla][B5(4)]DEAAFN[PyrS2″]F[Bta]Q-NH2 (staple 1-4, 4-11; not fully specified) [I-684] | – | – | – | 0.015 | 0.015 | 14.3
9 | Ac-[αAllylPro]D[Cha][B5(4)]DDLAFS[PyrS2″][Phe(2-Cl)][Bta]Q-NH2 (staple 1-4, 4-11) [I-1147] | 0.01 | 0.01 | 21.1 | – | – | –
10 | Ac-[αAllylPro]D[Cha][B5(4)]DDAAFS[PyrS2″][Phe(2-Cl)][Bta][hSer]-NH2 (staple 1-4, 4-11) [I-1137] | 0.008 | 0.008 | 12 | – | – | –
11 | Ac-[αAllylPro]D[tBuAla][B5(4)]DEAAFN[PyrS2″]F[Bta]H-NH2 (staple 1-4, 4-11; not fully specified) [I-693] | – | – | – | 0.012 | 0.012 | 28.5
12 | Ac-[αAllylPro]D[tBuAla][B5(4)]DEAAFN[S8][3Thi][Bta]Q-NH2 (staple 1-4, 4-11; not fully specified) [I-683] | – | – | – | 0.019 | – | 6.7
13 | Ac-[αAllylPro]D[tBuAla][B5(8)]DEAAFN[PyrS2″][3Thi][Bta]H-NH2 (staple 1-4, 4-11) [I-697] | – | – | – | 0.005 | 0.005 | 14.7
14 | Ac-[αAllylPro]D[tBuAla][B5(4)]DEAAFN[PyrS2″][3Thi][Bta]Q-NH2 (staple 1-4, 4-11; not fully specified) [I-690] | – | – | – | 0.007 | 0.007 | 17.8
